Data reported in patent publication US6544767 (AXYS PHARMACEUTICALS, dated 2003).

Molecular target: T1, mature recombinant human cathepsin O2 (human, UniProt P43235 115-329)
T1 construct: also called parent enzyme; mature enzyme
T1 sequence: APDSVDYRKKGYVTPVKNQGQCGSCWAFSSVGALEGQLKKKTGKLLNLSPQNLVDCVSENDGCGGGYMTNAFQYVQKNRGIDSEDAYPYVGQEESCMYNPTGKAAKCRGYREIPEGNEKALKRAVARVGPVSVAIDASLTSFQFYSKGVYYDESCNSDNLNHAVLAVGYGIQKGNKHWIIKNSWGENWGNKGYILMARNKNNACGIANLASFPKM
Assay: inhibition of enzyme activity; assay not detailed in Example 3

B1: propart of human cathepsin O2 (expressed separately in the pTrcHis vector, six-histidine metal binding domain) (other)
chain: LYPEEILDTHWELWKKTHRKQYNNKVDEISRRLIWEKNLKYISIHNLEASLGVHTYELAMNHLGDMTSEEVVQKMTGLKVPLSHSRSNDTLYIPEWEGR
notes: Tag removal is not mentioned; also called proregion; not shown: vector-encoded leader of pTrcHis with a series of six histidine residues
B1 gave a Ki of 100 pM.
